Assay results published in article doi:10.1101/2023.01.13.523903 (bioRxiv, 2023).

Target: Myc-DDK tagged human CD2-associated protein (human, UniProt Q9Y5K6 1-639)
Experiment: peptide or protein array

Sequence of Myc-DDK tagged human CD2-associated protein (Q9Y5K6 whole entry): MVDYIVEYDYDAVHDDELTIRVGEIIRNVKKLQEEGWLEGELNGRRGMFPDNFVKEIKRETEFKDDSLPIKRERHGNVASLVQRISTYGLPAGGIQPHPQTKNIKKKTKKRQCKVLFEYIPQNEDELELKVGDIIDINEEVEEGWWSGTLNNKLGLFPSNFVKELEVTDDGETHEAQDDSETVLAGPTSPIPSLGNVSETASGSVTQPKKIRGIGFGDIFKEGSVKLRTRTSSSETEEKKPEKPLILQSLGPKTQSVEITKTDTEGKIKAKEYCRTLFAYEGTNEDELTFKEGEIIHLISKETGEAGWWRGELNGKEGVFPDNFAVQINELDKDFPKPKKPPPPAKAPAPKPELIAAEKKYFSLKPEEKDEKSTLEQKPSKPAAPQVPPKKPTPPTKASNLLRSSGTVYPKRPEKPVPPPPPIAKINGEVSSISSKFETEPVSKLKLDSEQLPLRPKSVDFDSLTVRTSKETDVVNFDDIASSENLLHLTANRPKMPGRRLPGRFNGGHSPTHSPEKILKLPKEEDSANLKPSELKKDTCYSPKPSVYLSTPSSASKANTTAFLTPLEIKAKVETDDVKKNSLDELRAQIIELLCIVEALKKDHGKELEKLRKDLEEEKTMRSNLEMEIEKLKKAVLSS

Binder	binding result
EAPQQRPVVPPRRPP [TKS4 peptide 188]	binds
QRPVVPPRRPPPPKK [TKS4 peptide 189]	binds
